Assay results as given in the DeepSol protein solubility set.

Assay: soluble on expression in E. coli; label from the status in PepcDB or PDB records

MTSTSTPPGLARFNDLGEHAALAALHEACASTTWARRLIAARPYATADDLYTASDAAMAELTAADLAQAMAGHPPIGRPKPGDPTSAREQRGMAGASEELKADMLELNLAYQEKFGHVFLICATGRTGEQMRDAVRERIGNAPEREREIVRTELGKINRIRLARLVEEDAHALEHHHHHH
soluble on expression in E. coli: soluble

MLKVDGIDVFYGNIHALKGVSLEVNKGEIVTLIGANGAGKTTLLKTISGLLRPKNGDIVYEGASIAGKAAQTIVKQGISHVPEGRRVFANMTVEENLELGAFLRKDKEGIQQDFAKVFQLFPRLEERRKQLAGTLSGGEQQMLAIGRALMARPKLLLLDEPSMGLAPLLVKTIFRIIQEINESGTTILLVEQNAHMALSIAHRAYVLESGRVVLSGTASELQASEQVKQAYLGGH
soluble on expression in E. coli: soluble

MSLAIRNVVFDVGNVIVKWAPQDIAQLTFGEGEESAFMATAVFKSEFWRDLNKGKYTEAEVKRALHQQLGLSSDTLEQLFFHIKNTQVLLPGTLQLMDDLLKAGYRLYALTDNVNEIVAYLKKQYGFWPKFTGAVVSSECGLLKPDPAIYQHLADSQRILPQESVFMDDMPANVEGARQQGFHAIQFVDAHQARVQLAQMGLHFKGQHFGEGHHHHHH
soluble on expression in E. coli: soluble

MFLEECKTHFNTDCLYELLGVKKDCDEKALKKGYYRQSMRWHPDKSNLVEEDMQTYTTKFQLLNKAYQILSDEEKRKIYDETGSVDDEAGELNEDALKAWRMIFKKVTKEDIDSFMKTYQGSREQKDELVVHYEKFNGDIAKIREYAIGFDGVEELKEALDKLIDDGEIEKTKKYETSTSDKKMKAYKRKAEKEAIEVENMTQNNSDLVALIQGRQKERGTSFLDSLAAKYAPSSSKKAKRQ
soluble on expression in E. coli: not soluble

VREILSIHVGQCGNQIADSFWRLALREHGLTEAGTLKEGSNAAANSNMEVFFHKVRDGKYVPRAVLVDLEPGVIARIEGGDMSQLFDESSIVRKIPGAANNWARGYNVEGEKVIDQIMNVIDSAVEKTKGLQGFLMTHSIGGGSGSGLGSLILERLRQAYPKKRIFTFSVVPSPLISDSAVEPYNAILTLQRILDNADGAVLLDNEALFRIAKAKLNRSPNYMDLNNIIALIVSSVTASLRFPGKLNTDLSEFVTNLVPFPGNHFLTASFAPMRGAGQEGQVRTNFPDLARETFAQDNFTAAIDWQQGVYLAASALFRGDVKAKDVDENMATIRKSLNYASYMPASGGLKLGYAETAPEGFASSGLALVNHTGIAAVFERLIAQFDIMFDNHAYTHWYENAGVSRDMMAKARNQIATLAQSYRDAS
soluble on expression in E. coli: soluble

RERVKKEIKDLEKAKDFTEELIEKVKKYKALAREAALSKIGELASEIFAEFTEGKYSEVVVRAEENKVRLFVVWEGKERPLTFLSGGERIALGLAFRLAMSLYLAGEISLLILDEPTPYLDEERRRKLITIMERYLKKIPQVILVSHDEELKDAADHVIRISLENGSSKVEVVS
soluble on expression in E. coli: soluble

MCTFCSIINRELEGYFVYEDEKFAAILDKYPVSLGHTLVIPKKHFENYLEADEDTLAELAKVVKLVSLGIKDAVKADGLRLLTNIGRSAGQVIFHLHVHIIPTWEGDYPDIFKSFKPRKEQEKEYYELLQKIIRESIENLKRKIGDYKWG
soluble on expression in E. coli: soluble

MSTKVKKTTQLKQMLNSKDLEFIMEAHNGLSARIVQEAGFKGIWGSGLSVSAQLGVRDSNEASWTQVVEVLEFMSDASDVPILLDADTGYGNFNNARRLVRKLEDRGVAGACLEDKLFPKTNSLHDGRAQPLADIEEFALKIKACKDSQTDPDFCIVARVEAFIAGWGLDEALKRAEAYRNAGADAILMHSKKADPSDIEAFMKAWNNQGPVVIVPTKYYKTPTDHFRDMGVSMVIWANHNLRASVSAIQQTTKQIYDDQSLVNVEDKIVSVKEIFRLQRDDELVQAEDKYLPKN
soluble on expression in E. coli: soluble

MTKKDKKAKGPKMSTITTKSGESLKVFEDLHDFETYLKGETEDQEFDHVHCQLKYYPPFVLHDAHDDPEKIKETANSHSKKFVRHLHQHVEKHLLKDIKTAINKPELKFHDKKKQESFDRIVWNYGEETELNAKKFKVSVEVVCKHDGAMVDVDYKTEPLQPLI
soluble on expression in E. coli: soluble

MGSDKIHHHHHHMAEQPLIGKTILTTRAAGQSSPFAAQLRAAGAAVIEMPTLEIGPPSSWLPLDEAIAAIADFDWLILASANAVEAVQQRLAAQQKSWSDVPCAIAVVGQKTAQVLAAQGGKADYIPPEFIAESLVEHFPQPVAGQRLLFPRVETGGREQITQALQSQGAIVVEVPAYESRCPSQIPDDALIALRQAHLNLISFTSSKTVRNFCQLMASNLGVDWSARISGVAIASIGPQTSITCQELLGRVEVEAQEYTLDGLLLAIEQWARQTT
soluble on expression in E. coli: not soluble

MGSDKIHHHHHHMFLMVIINPTDGMSAMSAPLDTDQLQTFIAIVDTGSFTKAAGRVFKTQSAVSMQMRRLEERIGKQLFIKDGRGNRLTAEGEKLLNYARRIVRLNSEAIAAFDDNRLEGTLRIGTPDDYADRYMPEIIGRFAKTHPNVELYIVCEPSSDLAEKMARGELDIALVTHNPATRQSDVMRTEPLCWVASANHPLRDDAPVPLAVGRRDCNWRQLACSALDADGRDYQILFTSWSSTVVAAAVLAGLAVSVLPESALRTGMKVLGQLDGFPPLPPVQIGIMKRPGMSPSLMNAITDHIAACLDNINPTAIEDDMDGETKTYSRYYPRLRAGHMIPGW
soluble on expression in E. coli: not soluble

MGNSHSVTTALHSVLKQREIKVSTRTLETFIKEIERISPWYACSGSLTLSSWEKLREDLAKEQQNGKLKAGTMPLWKLVRSCLEDERCRPAIITGQAILEEAQDSMAETEWCERLGAPKKGKCAQSKKPFQRP
soluble on expression in E. coli: soluble

MSLNMTSKETKEGLAGYFSSDAAKMQSNNVSPVANNPFVQSTDKLDTRDFKITEVERSHYAIAQKLRQMLMADATPQSASGISADDVGVQLRVNSDIMYAPGSAELAPEGAKVLDDVIRILKEYNLYLVVRGHTDSGEPRNSIYPSNWELSGARAAAAVRYIITHGEIKPTRLRSIAYADTRPLEPNTSPDSRAKNRRVEFYFHRPEVMSYSVVYEGHHHHHH
soluble on expression in E. coli: soluble

MGSDKIHHHHHHMPEPDPLRIKTFTTPKDLGEWLKVNHGSERELWVKIYKKNTGIESVTWNDVVIEVLCWGWIDGIKKSIDDQAYLQRITPRKMRSNWSKRNTEHAERLISEERMMESGLVHIRAAKSDGRWENAYVVSEMEVPADFLAALENKSNAKAFFETLNKSSRYVIAYGLISAKKPETRLRRFEKFMNMLVHEEKPK
soluble on expression in E. coli: not soluble

MSLTAPRLRILSVEVRERMMPFVRPFRFGPSVVEAAPQAFVRIELEVEGAGRAVGQAAEMMMPRWFDKAPHKSPEQTVDDLRRVLLHAAALYADAPWSTAYGLSADAAAMQLGWAEGRGIPALAAHFGPALLDKAVVDALLRALSLTFPEGLSRNVMGLDARNARDLSPEQIPALLASLTPVPAVAVRHTIGLLDPLEGPHGLSAEIAAARLRFFKIKIGGDLAADLDRLAAITALLTHLAPDFRATLDANEQYDPERLCQLAAGLDTPALRPLKARLLYIEQPFDRTETFTRPLPPALDGIPVIIDEADGGLDAFPRAIALGYRGVSSKACKGLYKSILNAVRVQAGEGTFLTAEDLTCQPGLGLQQDLALVATLGLTHGERNGHHYVAGFGPAPEEEAGAFAAAHPDLYRLTDAGAALDVSRGVLATASLLSAPGFAGRAEPDWASLAPVTEGHHHHHH
soluble on expression in E. coli: not soluble

MGSDKIHHHHHHMVNNQLELEVKSFLEGQSDFANLPSSEITRLSQVIRKKKIRQGQWIFDQEDEFEYVFLMKEGHVKLFSMNLEGDMTSVSYIVPQMVFPLRGILQGRKYCYNAVAMCTSEVYILPIKEMRKIIVHHYAFTMAFMRRMEHRLHRSEKLLEKTTCSSAAQRVRQVLDYLNEDYAQTHGTVKKVPFKIFLKDLAVLSATTSETAGSVIKAMKEEKKVLYNNKIISFI
soluble on expression in E. coli: not soluble

MGSDKIHHHHHHMKTLIKNVHILTMDEQFSEIKAGYLVIEEDTIVELAPMTTLDEKRMAANQVIDGQNGILMPGMINTHTHVGMIPFRSLGDDVPDRLRRFLFPLEQFMTKELVGCSSDYAIAEMLLSGITSFCDMYYFEDEIAKSCEKMSVRALLGETIIDMPTCDSPEPSGGLFYAETFIRKWQGHPLITPMLAPHAPNTNSPEVLAKIIELSRQYQVPVTMHVAEMTYEMAEFEKAYQKTPIAFLEELGYLSEPFILAHCILATDEDLASLAATNGKARVAHCIGANTKSAKGVAPIKQMLDQGIIVGLGTDGPSSGNTLDLFTQMRMVANFHKTAHQDRSLFPAKEIVYLATMGGAKTLGLAEQVGSLEVDKKADITLIETQSVNMFPIFDAYSALVYSANASNVEAVWVNGQQLVANKELQQANLKEIKEKLYQAMNTFVKEAKKRAAL
soluble on expression in E. coli: not soluble

MTREIIPILPEAPVETARSGNALPLLREIAEHLHHLLETGEASTIDLSALPLTPGDLEWLRAELGGGEVSVTLHADGASTLDETAFPGVWWIIHRNAQGAVTTQFIEVAFVPELVKSPRADVAAARAALVLRMADL
soluble on expression in E. coli: soluble

MAEVVVIGAGLSGTLMAYELLPQLGKDDRLSVISQGAIYHFVPSNPWVAVGWRKRDEIEIDLVDIMKRKGVRLLTQGAKRLHPTENRVELSDGTSINYDYLVVATGPELAFDEIPGLGPQGHTQSICHVDHASHAKDAFEKLAARPGPVVIGAVQGASCFGPAYEFLFILETELRRRKLRDQVPMTFVTSEPYVGHLGLDGVGDTKGLLEGEMREKHVKWITNARVKGVEAGKMVVEELGEGGAVHKTHELPFAYSMMLPAFRGVEAVRGIDKLTNPRGFVIVDKHQRNPAFPNVFAVGVCVAIAPVGATPVSVGVPKTGFMIESMVTATALNIGALLRGKEPSAQPTWNAICLADFGDSGVAFLAQPQIPPRNVNWSSKGEWVHYAKVAFEKYFLRKMRRGESEPFYERFLLDKLNIAKIKEVRTGTLEHHHHHH
soluble on expression in E. coli: soluble

MTKQTKYVQTVIDELATKGVEALDAMANFTQEQVDHIVHQAAIAALDKHMYLAKLAVDETGRGIYEDKAIKNMYASEYIWNSIKYDKPVGVIAEDKEQGLVSIAEPVGVICGVTPTTNPTSITIFKALIAL
soluble on expression in E. coli: not soluble

MTPWLTVVGIGEDGFSGLGKQARRALLGAGRVFGSPRQLALLPRCVTAEQLAWPSPFSLAPVLALRGEPVCVLASGDPMFYGVGASLARQVPAAEMRVLSLPSSCALAAARLGWPLQDLQVVSLVARPLAALNAHLHSGMRLLVLSNDGDSPAAIAAQLRGQGFGPSRLQVFEHLGGVDERALAGTAQDWPHTGIAALNLVAIECLATPDAPRLHRLAGLPDAAYRHDGQLTKRDVRAITLARLAPQPGELLWDVGAGCGSIGIEWMRAHPACRALAIEADEGRQGLIEHNRDALGVPGLQLVRGKAPAALQGLEQPDAIFIGGGVTRTGVLDLCWASLRPGGRLVANAVTLQSELALAHFREQHGGELTRIHVAHAQPLGAFDTWRQALPITLLEVLKPADA
soluble on expression in E. coli: not soluble

SKLLENSSFEAINSQLTVETGDAHIIGRIESYSCKMAGDDKHMFKQFCQEGQPHVLEALSPPQTSGLSPSRLSKSQGGEEEGPLSDKCSRKTLFYLIATLNESFRPDYDFSTARSHEFSREPSLSWVVNAVNCSLFSAVREDFKDLKPQLWNAVDEEICLAECDIYSYNPDLDSDPFGEDGSLWSFNYFFYNKRLKRIVFFSCRSISGSTYTPSEAGNELDMELGEEEVEEESRSRGSGAEETSTMEEDRVPVICI
soluble on expression in E. coli: soluble

MPTPKAFTLLGPTACGKTALALKIAETLPVEIISLDSALLYTGMDIGTAKPSASERAFVPHHLIDIITPVQTYSAARFVEDCTRLTGEITARGKCPLIVGGTMMYFRALTQGLNDLPEADACLRADLDEQKQMYGLDFLYRTLQKVDPETACRLKPNDSQRIGRALEVYYLTGRPMSAHLNGQPEHTLPFELYTAALIPEDRARLHENIALRFHLMLEQGFIGEVENLRRRYPGLTADSPAIRCVGYRQAWEHLDGATDRQTFIEKGIAATRQLAKRQLTWLRKTPLDCVADPFSDGTSGTRLIEAAKRFFGELEHHHHHH
soluble on expression in E. coli: soluble
